For experiment [1], the target named is T1, recombinant cynomolgus monkey TREM-1 (cynomolgus monkey, UniProt A0A2K5VHG8 21-204).
T1 construct: Soluble recombinant protein injected as SPR analyte; construct not described; also called cTREM-1; cynomolgus TREM-1
T1 sequence: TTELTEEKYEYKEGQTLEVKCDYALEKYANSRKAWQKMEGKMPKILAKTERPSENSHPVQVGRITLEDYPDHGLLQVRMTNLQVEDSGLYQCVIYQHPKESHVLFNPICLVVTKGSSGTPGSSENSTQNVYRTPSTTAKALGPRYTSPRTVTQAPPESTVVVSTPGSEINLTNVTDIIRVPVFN
Put plainly: SPR, Fab immobilised, cynomolgus TREM-1 injected; average. The method, then:
(§1) Surface plasmon resonance (SPR): in order to evaluate the interaction kinetics for TREM-1 antibodies or Fabs to hTREM-1 (human TREM-1) and cTREM-1 (cynomolgus monkey TREM-1), surface plasmon resonance (SPR) assays were carried out (Biacore™ T200, GE Healthcare Biosciences). The anti-human Fc antibodies (Cytiva) were immobilized on CM5 sensor chip in order to evaluate IgG1 affinities and Fabs were directly immobilized on the chip. Immobilization experiments were performed at 25° C. using HBS-EP+1× running buffer (10 mM HEPES, 150 mM NaCl, 3 mM EDTA, 0.05% surfactant P20, pH 7.4). The anti-human Fc antibodies or Fabs were diluted in 10 mM sodium acetate at acidic pH before the immobilization procedure using amine coupling on the dextran matrix of the sensor chips. […] Following these injections, ethanolamine was injected to deactivate the surface. The immobilization wizard was used to obtain several thousand of immobilized RU (resonance units). The immobilization level was chosen in order to have a proper covering of the sensor chip surface. […] Binding of hTREM-1 or cTREM-1 proteins was conducted by injecting analyte over all flow cells. […] The concentrations were evaluated using the Single Cycle Kinetics method. This approach consists of a sequential injection of increasing concentration of the analyte, with a single regeneration step using a magnesium chloride buffer (Cytiva) at the end of the cycle. Binding affinity of TREM-1 antibodies or Fabs with hTREM-1 or cTREM-1 was quantified by determination of the equilibrium dissociation constant (KD) determined by measurement of the kinetics of complex formation and dissociation.

Experiment [2] concerns the target T1, recombinant cynomolgus monkey TREM-1. Put plainly: SPR, Fab immobilised, cynomolgus TREM-1 injected; replicate 1. On the procedure:
as §1

For experiment [3] the target is unchanged. In words: SPR, Fab immobilised, cynomolgus TREM-1 injected; replicate 2. The method, then: as §1

Where a chain is given by its changes, count along the chain named.

B1: anti-hTREM-1 Fab fragment INO-10F (Fab, V domains shown)
VH: AVQLQQSVAALVRPGASVKLSCTASGFNIKNTYIHWVKQRPEQGLEWIGRIDPANGNTKYAPKFQGKATITADTSSDTAYLQLSSLTSDDTAIYYCTGHYGSTMDYWGQGTSVTVSS
VL: not shown
notes: Recombinant chimeric Fab (murine variable regions) made in CHO cells and purified on HisTrap Excel; also called INO-10 Fab
Turning to B1, the Kd in experiment [1] was 62.2 nM; in experiment [2], 57.9 nM; in experiment [3], 66.6 nM.

B2: humanized anti-TREM-1 Fab fragment INO-10F-4 (Fab, V domains shown)
VH: EVQLVESGGALVKPGGSLRLSCAASGFNIGNTYIHWVRQAPGKGLEWVGRIDPAGGRTKYAPKVKGRFTISADDSKNTAYLQMNSLKTEDTAVYYCTGHRGGTMDYWGQGTLVTVSS
VL: EIVLTQSPATLSLSPGERATLSCRASQSVSNYGISFLNWYQQKPGQAPRLLIYAAEYRGRGIPARFSGSGSGTDFTLTISSLEPEDFAVYYCQQSSNVPYTFGQGTKVEIK
notes: Fab
With B2, the figures for the dissociation constant (Kd) in experiment [1], in experiment [2] and in experiment [3] were 24.6 nM, 24.8 nM and 24.4 nM, respectively.

B3: humanized anti-TREM-1 Fab fragment INO-10F-3 (Fab, V domains shown)
VH: B2 VH with G30D, V48I, A61D, D74T, R100Y
VL: B2 VL with Q27E, S30D, S96R, N97H
notes: Fab
Turning to B3, the dissociation constant Kd in experiment [1] came out at 7.64 nM; in experiment [2], 7.6 nM; in experiment [3], 7.68 nM.

B4: humanized anti-TREM-1 Fab fragment INO-10F-2 (Fab, V domains shown)
VH: B2 VH with V48I, A61S, K65Q, D73P, D74T
VL: B2 VL with E56S, R58Q, G59K, V98F, Y100W
notes: Fab
For the molecule B4, the Kd was found to be 28.3 nM in experiment [1] and 28.5 nM in experiment [3].

B5: humanized anti-TREM-1 Fab fragment INO-10F-6 (Fab, V domains shown)
VH: B2 VH with A79L
VL: B2 VL with G59A
notes: Fab
For the molecule B5, the Kd in experiment [1] is 56.8 nM; in experiment [2] it was 60.1 nM; in experiment [3], 53.4 nM.
